Data taken from article PMC6933502, “Structural and Functional Insights Into CmGH1, a Novel GH39 Family β-Glucosidase From Deep-Sea Bacterium” (Frontiers in Microbiology, 2019).

Legend:
[1] = molecular target: T1, CmGH1 (Croceicoccus marinus, UniProt A0A1Z1FG87); assay: residual p-NPG hydrolysis with added glucose; format: biochemical; details: p-NPG substrate; product inhibition
T1 construct: gene A9D14_15590; N-terminal His6-SUMO tag (pSMT3) cut with Ulp1; expressed in E. coli BL21 (DE3)

[2] = substrate: O=[N+]([O-])c1ccc(O[C@@H]2O[C@H](CO)[C@@H](O)[C@H](O)[C@H]2O)cc1; assay: purified protein; details: conditions of the Km not stated, optimum pH 9.0, 55°C

% relative activity remaining at 200 mM [1] [%] | Molecule | Km [2] [µM] | kcat [2] [s⁻¹]
> 30 | OC[C@H]1OC(O)[C@H](O)[C@@H](O)[C@@H]1O (some centres unmarked) [glucose] | – | –
– | CmGH1 (Croceicoccus marinus) (protein) MTSDLIAKLSVNAGEPIGNMRQLHGTSGIPAPAPGTDSVPDILDVWRNAQVTLVRSYDWVSRLDTIDNPTSLFPDWSADPSDPASYNFAATDTWVGQTRSIGANILFTIASEIPANKQPARDLAKYEQVVENIVRHYVCGWGDGFENAVSHWEFGDQPDFGKLHFSGTPDQFYEMYAAAARAVKRVDPALKVGGPCVAFPLNEGPFREGFLDYVKQQSVPLDFLSWMWYGDNSRDPMDFRTIAAEVRAIVDKYGFTDTELLLSYWSMTGIPTAKFEDFDNAAFLAAAAIYMQDSEVDKAIFFRADTGADFHYNFTDPAGIFEDDGSQNARTGAFQLVGQTLATTERLAITGGDDNGFAALAGRTADGDTIRILISNYAIPDMYLTARDRDVFEFQVPIGDQKTDMSLNVPPRRVDARSTGYSGYTLEIGHLPWGDGPHRVVRYRADRDHKGEMLDSHEGRGSSVTVQNKLAVSGVELIEITRVSS | 332 ± 38 | 0.0358 ± 0.00135
– | CmGH1 (Croceicoccus marinus; Q157E) (protein) MTSDLIAKLSVNAGEPIGNMRQLHGTSGIPAPAPGTDSVPDILDVWRNAQVTLVRSYDWVSRLDTIDNPTSLFPDWSADPSDPASYNFAATDTWVGQTRSIGANILFTIASEIPANKQPARDLAKYEQVVENIVRHYVCGWGDGFENAVSHWEFGDEPDFGKLHFSGTPDQFYEMYAAAARAVKRVDPALKVGGPCVAFPLNEGPFREGFLDYVKQQSVPLDFLSWMWYGDNSRDPMDFRTIAAEVRAIVDKYGFTDTELLLSYWSMTGIPTAKFEDFDNAAFLAAAAIYMQDSEVDKAIFFRADTGADFHYNFTDPAGIFEDDGSQNARTGAFQLVGQTLATTERLAITGGDDNGFAALAGRTADGDTIRILISNYAIPDMYLTARDRDVFEFQVPIGDQKTDMSLNVPPRRVDARSTGYSGYTLEIGHLPWGDGPHRVVRYRADRDHKGEMLDSHEGRGSSVTVQNKLAVSGVELIEITRVSS | 354.2 ± 42 | 0.488 ± 0.0147
